According to patent publication US20170355750A1 (ACADEMIA SINICA, published 2017):

B1: GH2-41 scFv (scFv)
scFv: DIQMTQSPSSLSASVGDRVTITCRASQDVSNSVAWYQQKPGKAPKLLISGAAWLYSGVPSRFSGSGSGTDFTLTISSLQPEDFATYYCQQSGNFPLTFGQGTKVEIKRGGSSRSSSSGGGGSGGGGEVQLVESGGGLVQPGGSLRLSCAASGFTISNWGIHWVRQAPGKGLEWVASIGPSGGFTSYADSVKGRFTISADTSKNTAYLQMNSLRAEDTAVYYCARFYIYGGVIMDYWGQGTLVTVSSASAAA
B2: H32 scFv (scFv)
scFv: DIQMTQSPSSLSASVGDRVTITCKASQNVGTAVAWYQQKPGKAPKLLIYSASNRYTGVPSRFSGSGSGTDFTLTISSLQPEDFATYYCQQYSSYPLAFGQGTKVEIKRGGGGSIEGRSGGGGSEVQLVESGGGLVQPGGSLRLSCKASGFNIKDYFMYWVRQAPGKGLEWVGWIDPENGNTIYDPKFQGRFTISADTSKNTAYLQMNSLRAEDTAVYYCTRGYYGSRVLAMDYWGQGTLVTVSSASAAA
notes: also called scFv(H32)
B3: GH2-50 scFv (scFv)
scFv: DIQMTQSPSSLSASVGDRVTITCRASQDVFYGVAWYQQKPGKAPKLLIFWTTYLYSGVPSRFSGSGSGTDFTLTISSLQPEDFATYYCQQYFNWPLTFGQGTKVEIKRGGSSRSSSSGGGGSGGGGEVQLVESGGGLVQPGGSLRLSCAASGFTINNDGIHWVRQAPGKGLEWVAAIGPFWGSTDYADSVKGRFTISADTSTNTAYLHMNSLRAEDTALYYCARFGNYYDGVMDYWGQGTLVTVSSASAAA
B4: GH2-61 scFv (scFv)
scFv: DIQMTQSPSSLSASVGDRVTITCRASQDVGSNVAWYQQKPGKAPKLLISWSTSLYSGVPSRFSGSGSGTDFTLTISSLQPEDFATYYCQQYGGWPITFGQGTKVEIKRGGGGSIEGRSGGGGSEVQLVESGGGLVQPGGSLRLSCAASGFTINNWGIHWVRQAPGKGLEWVAGIWPYGGYTYYADSVKGRFTISADTSKNTAYLQMNSLRAEDTAVYYCARFYNHHGGVMDYWGQGTLVTVSSASAAA
B5: GH2-20 scFv (scFv)
scFv: DIQMTQSPSSLSASVGDRVTITCRASQDVNNNVAWYQQKPGKAPKLLIYWTTYLYSGVPSRFSGSGSGTDFTLTISSLQPEDFATYYCQQGSNWPITFGQGTKVEIKRGGSSRSSSSGGGGSGGGGEVQLVESGGGLVQPGGSLRLSCAASGLTINDYGIHWVRQAPGKGLEWVASIGPSGGFTSYADSVKGRFTISADTSKNTAYLQMNSLRAEDTAVYYCARFVIYWGFFMDYWGQGTLVTVSSASAAA

How the values were obtained:
[1] = target: T1, HER2 on the surface of N87 cells (human, UniProt P04626); test: flow cytometry on N87 cells; scFv detected with AL2-RFP (1:1 scFv:AL fragment); MFI adjusted over cells with AL2-RFP without scFv
T1 construct: full-length receptor on the cell surface
Description: (§1) Mean fluorescence intensities (MFIs) for the same set of scFvs complexed with AL2-RFP in 1:1 ratio of the scFv:AL fragment were measured with N87 (FIG. 10B), SKBR3 (FIG. 10D), BT474 (FIG. 10F), and MCF7 (FIG. 10H) cells by flow cytometry, where the MFIs shown in the y-axis were adjusted over the background value by the cells treated with AL2-RFP without scFv.
(§2) Cells were suspended by trypsin treatment and went through mesh 40-micron pore. About 2×10⁵ cells were incubated with 100 μL scFv at 4° C. for 30 minutes, then washed once with 0.5% FBS 1×PBS (wash buffer), mixed with 1.2 μg AL2-RFP in 50 μL wash buffer at 4° C. for 20 minutes, and then wash twice with washer buffer. After centrifugation and resuspension, cells were analyzed for RFP signal by FACS (BD FACS Canto II).

[2] = target: T2, HER2 on the surface of BT474 cells (human, UniProt P04626); test: flow cytometry on BT474 cells; scFv detected with AL2-RFP (1:1 scFv:AL fragment); MFI adjusted over cells with AL2-RFP without scFv
T2 construct: full-length receptor on the cell surface
Description: as §1, §2

Row | Binder | binding result [1] | binding result [2]
1 | B1 | binds | binds
2 | B2 | binds | binds
3 | B3 | binds | binds
4 | B4 | binds | binds
5 | B5 | binds | binds
